Reference: paper PMC5093203 (Pharmaceutical Research, 2016)
Marks after values point to notes of the source that are not given here.

What was measured:
[1] = design: method as in 2 sources, ref 28 = [28]; PMID 22353017; doi:10.1021/mp200470c; 28. Gokarn YR McLean M Laue TM Effect of PEGylation on protein hydrodynamics Mol Pharm 2012 9 4 762 73 10.1021/mp200470c 22353017 ||| ref 28, 34, 35 = [28]; PMID 22353017; doi:10.1021/mp200470c; 28. Gokarn YR McLean M Laue TM Effect of PEGylation on protein hydrodynamics Mol Pharm 2012 9 4 762 73 10.1021/mp200470c 22353017 || [34]; PMID 23499718; doi:10.1016/j.jconrel.2013.03.006; 34. Kaminskas LM Ascher DB McLeod VM Herold MJ Le CP Sloan EK PEGylation of interferon alpha2 improves lymphatic exposure after subcutaneous and intravenous administration and improves antitumour effi || [35]; PMID 19686787; doi:10.1016/j.jconrel.2009.08.005; 35. Kaminskas LM Kota J McLeod VM Kelly BD Karellas P Porter CJ PEGylation of polylysine dendrimers improves absorption and lymphatic targeting following SC administration in rats J Controlled Release; conditions: 14.3-kDa egg white lysozyme with vs without 20-kDa PEG; cited from earlier work
[2] = Hydrodynamic size by dynamic light scattering (DLS); format: physicochemical; conditions: 25 ± 1°C, 90° scattering angle, 633 nm, ~85 μM in 1x PBS, viscosity-corrected
Method: Weighed-samples of freeze-dried powder were dissolved in 1x phosphate-buffered saline (PBS) to a final concentration of ~85 μM. Concentrated protein stock solutions were diluted ~20-fold in 1 × PBS buffer to achieve a final concentration of ~85 μM. Protein concentrations (OD276 (1 mg/ml) = 1 for a 1 cm cuvette) were measured by NanoDrop (Thermo Fisher Scientific, Waltham, MA, USA). All samples were filtered through Whatman Anatop10™ low protein-binding filters (Whatman, Kent, UK) before the DLS experiments. Solution viscosity was measured by an m-VROC® (RheoSense, Inc., San Ramon, CA, USA) viscometer and light scattering data were corrected using the measured viscosity.
DLS measurements were carried out at 25 ± 1°C at a 90° scattering angle using an ALV/CGS-3 Compact Goniometer system with ALV/LSE-5003 Light Scattering Electronics and Multiple Tau Digital Correlator (ALV®-GmbH, Langen, Germany). The laser operating wavelength was 633 nm. The apparent hydrodynamic radius Rh was estimated via the Stoke-Einstein equation (Eq. 1):1 Rh=kBT/6πηD where, Rh is the apparent hydrodynamic radius (m), kB is the Boltzmann constant (kg^●m^2/s^2●K), T is the absolute temperature (K), η is the viscosity (kg/m•s), and D is the diffusion constant (m^2/s). DH is the apparent hydrodynamic diameter in nm or 2 Rhinnm . The viscosity measurement was performed with a solution concentration of 0.49 ± 0.02 mg/mL at 25°C. Viscosity mean and SD was determined from n ≥8 and reported as cP, (g/cm•s) = 10^−3 × Pa•s (kg/m•s)

[3] = LDC sheep, SC commercially formulated human insulin; cited from earlier work
[4] = in vivo, sc
Method: Using a parallel group design, BIL was administered by single dose SC injection to non-LDC control sheep and to LDC sheep with a surgically placed popliteal lymph duct cannula (Table I). Blood was collected in each group, and lymph was continuously collected in the LDC sheep. BIL was also administered by bolus IV injection to a separate group of non-LDC animals for determining bioavailability and PK linearity.
Surgery was performed under aseptic conditions. Castrated male merino sheep (H.M. Barty & Sons Merino Stud, Robinvale, Victoria, Australia) weighing 31–48 kg were used. […]
In LDC sheep, lymph samples were collected in pre-weighed tubes containing 10 μL/mL of 10% EDTA at the following time points: Predose, 0–1, 1–2, 2–3, 3–4, 4–5, 5–6, 6–7, 7–8, 8–9, 9–10, 10–11, 11–12, 12–24, 24–36, 36–48, 48–60, 60–72, 72–84, 84–96 h post dose. At each time interval, the amount of lymph collected was determined gravimetrically. […]
BIL concentrations in serum and lymph were determined by ELISA performed by the bioanalytical testing facility Charles River Laboratories Preclinical Services (Senneville, Quebec, Canada) as described previously for rat serum ([27]). The assay quantitation range for rat serum was 20 pM to 500 pM. Assay quantitation range for sheep serum was from 20 pM to 500 pM. […] The quantitation range for sheep lymph was also 20 to 500 pM. […]

[5] = in vivo; cited from earlier work
[6] = Serum pharmacokinetics in non-LDC sheep (IV, SC); format: in vivo, merino sheep
Method: (§1) Surgery was performed under aseptic conditions.
(§2) Blood samples (3 mL) were collected into 4 mL serum collection tubes (Becton, Dickinson and Company, Scoresby, Victoria, Australia) at the following time points (hour): predose, […] (1 min, IV only), 0.083 (5 min, IV only), 0.25 (15 min, IV only), 0.5, 1, 2, 3 (SC LDC only), 4, 6, 8, 10, 12 (all IV and SC LDC), 18 (SC non-LDC only), 30 (all SC), 39 (SC non-LDC only), 48 (all SC), 54 (all SC), 72 (all SC), 96 (SC LDC only), and 120 (SC LDC only) hours postdose. The jugular cannula was flushed with heparinized saline (50 IU/mL) between samples to maintain patency. Blood samples were allowed to stand at room temperature for up to 1 h and were then centrifuged for 10 min 6000 rpm to separate serum.
(§3) Noncompartmental pharmacokinetic parameters for the rat study were determined using WinNonlin® professional v5.3 (Pharsight, St. Louis, MO, USA) and for the sheep study using Watson^TM (version 7.4.2 PRD872, Thermo Fisher Scientific, Inc). Concentrations below the lower limit of quantitation were assigned a value of zero and the zero result used in the calculation of means and standard deviation using MicroSoft® Office® Excel® 2010 (version 14.0.; Redmond, WA). Descriptive statistics were calculated as appropriate. SigmaPlot® v11 (Systsat Software, IC., San Jose, CA, USA) and Excel® were used for the graphics.

[7] = design: species or system Sprague Dawley rats; conditions: rat, in vivo, iv
Method: The 5/6-nephrectomized and sham male Sprague Dawley rats were obtained from Taconic Farms (Albany, NY, USA). Animals were housed two per cage in polycarbonate cages with filter tops. Animals were maintained on a 12/12 h light/dark cycle (lights on at 6:00 AM). All animals received water and LabDiet 5001 (PMI Nutrition International, Brentwood, MO, USA) ad libitum. Animals were monitored daily during the 5-week time frame that allowed progression of the disease state. Seven weeks post-surgery, blood was collected by tail clip into serum tubes for measurement of serum creatinine and blood urea nitrogen. Three days later, urine was collected for 24 h from animals housed in metabolism cages. […]
BIL concentrations in serum and lymph were determined by ELISA performed by the bioanalytical testing facility Charles River Laboratories Preclinical Services (Senneville, Quebec, Canada) as described previously for rat serum ([27]). The assay quantitation range for rat serum was 20 pM to 500 pM. […] Samples above the upper limit of quantitation were diluted and reanalyzed to gain results within the calibrated range. […]
Noncompartmental pharmacokinetic parameters for the rat study were determined using WinNonlin® professional v5.3 (Pharsight, St. Louis, MO, USA) and for the sheep study using Watson^TM (version 7.4.2 PRD872, Thermo Fisher Scientific, Inc). […] Descriptive statistics were calculated as appropriate. […]

[8] = Serum pharmacokinetics in lymph duct cannulated (LDC) sheep (IV, SC); design: species or system merino sheep; conditions: in vivo
Method: as §1, §2, §3

[9] = rat, in vivo, sc; cited from earlier work
[10] = non-LDC sheep, SC 120 nmol, serum, mean ± SD, N = 5

20-kDa PEG egg white lysozyme: 14.3-kDa egg white lysozyme with addition of 20-kDa PEG
hydrodynamic diameter [1]: 9.6 nm

egg white lysozyme
hydrodynamic diameter [1]: 4.0 nm

insulin
apparent hydrodynamic diameter (DH) [2]: 2.1 nm | % of the insulin dose recovered in the peripheral lymph [3]: 17.3%

insulin peglispro [BIL]
% of dose recovered in the peripheral lymph [4]: 88% | PK properties in renal insufficiency (in words) [5]: unaffected | AUC0-t ([6]; in vivo, iv, 20 nmol): 0.0125667 ± 0.0018009 µM·h | C0 ([6]; in vivo, iv, 20 nmol): 11.133 ± 1.234 nM | CL ([6]; in vivo, iv, 20 nmol): 0.70 ± 0.09 mL/min/kg | T1/2 ([6]; in vivo, iv, 20 nmol): 1.6 ± 0.1 h | Vdss ([6]; in vivo, iv, 20 nmol): 0.05 ± 0.01 L/kg | AUC0-t ([6]; in vivo, iv, 40 nmol): 0.040075 ± 0.0124583 µM·h | C0 ([6]; in vivo, iv, 40 nmol): 27.9 ± 6.124 nM | CL ([6]; in vivo, iv, 40 nmol): 0.53 ± 0.21 mL/min/kg | T1/2 ([6]; in vivo, iv, 40 nmol): 2.8 ± 0.3 h | Vdss ([6]; in vivo, iv, 40 nmol): 0.04 ± 0.01 L/kg | AUC0-t ([6]; in vivo, iv, 120 nmol): 0.1116667 ± 0.0150444 µM·h | C0 ([6]; in vivo, iv, 120 nmol): 60.4 ± 1.039 nM | CL ([6]; in vivo, iv, 120 nmol): 0.47 ± 0.06 mL/min/kg | T1/2 ([6]; in vivo, iv, 120 nmol): 3.3 ± 1.2 h | Vdss ([6]; in vivo, iv, 120 nmol): 0.07 ± 0.04 L/kg | % bioavailability ([6]; in vivo, sc): 123% | AUC0-t ([6]; in vivo, sc, 120 nmol): 0.14296 ± 0.0838207 µM·h | T1/2 [6, 10]: 7.5 ± 5.1 h | Tmax [6, 10]: 2.4 ± 0.9 h | clearance in sham versus 5/6-nephrectomized rats (in words) [7]: similar | apparent hydrodynamic diameter (DH) [2]: 7.6 nm | AUC0-t ([8]; iv, 120 nmol): 0.1395 ± 0.0606932 µM·h | C0 ([8]; iv, 120 nmol): 70.175 ± 13.6001 nM | CL ([8]; iv, 120 nmol): 0.37 ± 0.12 mL/min/kg | T1/2 ([8]; iv, 120 nmol): 5.7 ± 2.1 h | Vdss ([8]; iv, 120 nmol): 0.04 ± 0.01 L/kg | % bioavailability ([8]; sc): < 2% | % bioavailability ([8]; sc, 120 nmol): 1.7% | AUC0-t ([8]; sc, 120 nmol): 0.0025945 ± 0.0025636 µM·h | Cmax ([8]; sc, 120 nmol): 0.4153 ± 0.384 nM | T1/2 ([8]; sc, 120 nmol): 4.6 ± 4.0^a hours | Tmax ([8]; sc, 120 nmol): 2.3 ± 1.0 h | % of dose excreted unchanged in urine [9]: 2.5%

leptin
apparent hydrodynamic diameter (DH) [2]: 4.3 nm | apparent hydrodynamic diameter (DH) ([2]; listed as Leptin): 4.2 nm
